# Earlier results in patent publication US20250312434A1, “LIPOPOLYSACCHARIDE (LPS) DEFICIENT ACINETOBACTER BAUMANNII M[…]” (VAXDYN S.L., priority 2021, published 2025).
# Assays:
# P. aeruginosa [1] = settings: 4 intraperitoneal doses of 50 μg
# [2] = system: P. aeruginosa strain PAO1; settings: Balb/c female mice, 4 subcutaneous doses of 50ug; intranasal PAO1
# P. aeruginosa strain PAK = settings: Balb/c female mice, 4 subcutaneous doses of 50ug; intranasal PAK
# P. aeruginosa [3] = settings: 2 intraperitoneal doses of 10 ug
molecule,measurement,setting,value
"purified OprI: P. aeruginosa outer membrane lipoprotein OprI, purified",LD50 in immunized versus not immunized animals,P. aeruginosa [1],up to 35 fold
"rOprF: recombinant full-length OprF from P. aeruginosa expressed in Escherichia coli (protein, UniProt P13794 1-350, looked up, full-length, recombinant full-length OprF from P. aeruginosa expressed in Escherichia coli) MKLKNTLGVVIGSLVAASAMNAFAQGQNSVEIEAFGKRYFTDSVRNMKNADLYGGSIGYFLTDDVELALSYGEYHDVRGTYETGNKKVHGNLTSLDAIYHFGTPGVGLRPYVSAGLAHQNITNINSDSQGRQQMTMANIGAGLKYYFTENFFAKASLDGQYGLEKRDNGHQGEWMAGLGVGFNFGGSKAAPAPEPVADVCSDSDNDGVCDNVDKCPDTPANVTVDANGCPAVAEVVRVQLDVKFDFDKSKVKENSYADIKNLADFMKQYPSTSTTVEGHTDSVGTDAYNQKLSERRANAVRDVLVNEYGVEGGRVNAVGYGESRPVADNATAEGRAINRRVEAEVEAEAK",survival at 7 days,[2],50%
same,survival at 7 days,P. aeruginosa strain PAK,60%
"purified OprF: purified OprF from P. aeruginosa PAO1 (protein, UniProt P13794 25-350, looked up) Outer membrane porin F: QGQNSVEIEAFGKRYFTDSVRNMKNADLYGGSIGYFLTDDVELALSYGEYHDVRGTYETGNKKVHGNLTSLDAIYHFGTPGVGLRPYVSAGLAHQNITNINSDSQGRQQMTMANIGAGLKYYFTENFFAKASLDGQYGLEKRDNGHQGEWMAGLGVGFNFGGSKAAPAPEPVADVCSDSDNDGVCDNVDKCPDTPANVTVDANGCPAVAEVVRVQLDVKFDFDKSKVKENSYADIKNLADFMKQYPSTSTTVEGHTDSVGTDAYNQKLSERRANAVRDVLVNEYGVEGGRVNAVGYGESRPVADNATAEGRAINRRVEAEVEAEAK",protection,P. aeruginosa [3],up to 67%
